The target of the data set is T1, GST-AfWRKY20 (Amorpha fruticosa, UniProt A0A8K1R274 1-585).
T1 sequence: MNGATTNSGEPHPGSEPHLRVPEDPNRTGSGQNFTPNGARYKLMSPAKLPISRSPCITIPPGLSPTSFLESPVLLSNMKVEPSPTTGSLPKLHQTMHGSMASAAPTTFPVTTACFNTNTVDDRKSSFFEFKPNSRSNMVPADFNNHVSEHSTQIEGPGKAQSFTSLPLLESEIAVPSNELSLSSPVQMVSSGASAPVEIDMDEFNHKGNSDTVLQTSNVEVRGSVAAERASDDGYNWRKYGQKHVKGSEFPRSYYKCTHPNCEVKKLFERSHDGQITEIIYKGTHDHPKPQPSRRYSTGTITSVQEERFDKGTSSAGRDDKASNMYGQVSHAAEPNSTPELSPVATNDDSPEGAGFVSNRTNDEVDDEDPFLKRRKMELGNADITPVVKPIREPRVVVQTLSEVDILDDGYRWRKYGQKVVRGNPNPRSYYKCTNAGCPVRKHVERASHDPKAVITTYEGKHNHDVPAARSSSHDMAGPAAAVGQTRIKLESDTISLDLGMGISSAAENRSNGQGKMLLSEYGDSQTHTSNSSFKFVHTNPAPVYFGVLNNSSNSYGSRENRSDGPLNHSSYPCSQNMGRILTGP
Description: EMSA; unlabeled Cold-Pr competitor weakened the shift; EMSA kit (Biyuntian/Beyotime) per instructions; buffer, salt, pH and temperature not stated. As to conditions: protein: recombinant; tags: GST; blunt as designed; printed strands are not exact complements (F has GGAAC / GGGC, complement of R has GGAC / GGGGC; possible misprint). For orientation: A gel shift assay detects complexes by their altered migration in electrophoresis.

B1: W-box probe (Biotin-Pr) (dsDNA)
DNA 1: GGAACTTGACCTTGACCTTAGGGCTGCAGGAATTCG
DNA 2: CGAATTCCTGCAGCCCCTAAGGTCAAGGTCAAGTCC
For the molecule B1, the binding result is recorded as “binds”.

The values above are taken from publication PMC10418629, “Functional Study of Amorpha fruticosa WRKY20 Gene in Response to Drought Stress”.
